Source: US20260207704A1, “STAPLED PEPTIDES AND METHODS THEREOF” (priority 2022, published 2026)
*1 amine or outer side, *2 acyl side, *3 side chain or, on linkers, in order; H or OH if unused. Bridges are numbered along the chain shown (N, C = ends). Primed or numbered codes have the meaning given here. [ ]: non-standard residue; d: D form. B5(4) = 2-amino-2-(pent-4-en-1-yl)hept-6-enoic acid, stapled through each of its two olefin groups with other olefin-containing amino acid residues, O=C(C(CCCC=[*:3])(CCCC=[*:4])N[*:1])[*:2]; PyrS2″ = (S)-3-amino-1-((pent-4-en-1-yloxy)carbonyl)pyrrolidine-3-carboxylic acid (olefin stapling residue), C=CCCCOC(=O)N1CC[C@@](N[*:1])(C(=O)[*:2])C1; PyrS2(3) = (S)-3-amino-1-((pent-4-en-1-yloxy)carbonyl)pyrrolidine-3-carboxylic acid, olefin residue, C=CCCCOC(=O)N1CC[C@@](N[*:1])(C(=O)[*:2])C1; B5(3) = 2-amino-2-(pent-4-en-1-yl)hept-6-enoic acid, two olefin arms, C=CCCCC(CCCC=C)(N[*:1])C(=O)[*:2]; 2F3MeF(3) = aromatic amino acid residue, Cc1cccc(C[C@H](N[*:1])C(=O)[*:2])c1F; 2F3MeF″ = aromatic residue, Cc1cccc(C[C@H](N[*:1])C(=O)[*:2])c1F; Phe(3-COOH) = N[C@@H](Cc1cccc(C(=O)O)c1)C(=O)O; 2F3MeF = Cc1cccc(C[C@H](N[*:1])C(=O)[*:2])c1F; Phe(2-Cl) = N[C@@H](Cc1ccccc1Cl)C(=O)O; Bta = N[C@@H](Cc1csc2ccccc12)C(=O)O; αAllylPro = C=CC[C@@]1(C(=O)O)CCCN1; BztA = aromatic amino acid residue; tBuAla = CC(C)(C)C[C@H](N)C(=O)O; Biphen33COOH = not defined here; 3Thi = N[C@@H](Cc1ccsc1)C(=O)O; hSer = N[C@@H](CCO)C(=O)O; BztA″ = aromatic residue; TfeGA = not defined here; AsnR = not defined here; GlnR = not defined here; PL3 = not defined here; B5 = not defined here

B1: I-59 (peptide)
peptide: Ac-[αAllylPro]D[tBuAla][B5(3)]D[Phe(3-COOH)]AAFK[PyrS2(3)][2F3MeF″][Bta][AsnR]A-NH2
modifications: bridge 10-14; not fully specified (bridges); printed as Ac-PL3-Asp-Npg-B5-Asp-3COOHF-Ala-Ala-Phe-Lys*3-PyrS2-2F3MeF-BztA-AsnR*3-Ala-NH2; reading uncertain
B2: I-58 (peptide)
peptide: Ac-[αAllylPro]D[tBuAla][B5(3)]D[Phe(3-COOH)]AAFK[PyrS2(3)][2F3MeF″][Bta][AsnR]A-NH2
modifications: bridge 10-14; not fully specified (bridges); printed as Ac-PL3-Asp-Npg-B5-Asp-3COOHF-Ala-Ala-Phe-Lys*3-PyrS2-2F3MeF-BztA-AsnR*3-Ala-NH2; reading uncertain
B3: I-130 (peptide)
peptide: Ac-[αAllylPro]D[tBuAla][B5]D[Phe(3-COOH)][GlnR]AFL[PyrS2″][2F3MeF″][BztA″][(39N2spiroundecane)GlnR]A-NH2
modifications: reading uncertain; also: staple links not given here, printed as Ac-PL3-Asp-Npg-B5-Asp-3COOHF-GlnR-Ala-Phe-Leu-PyrS2-2F3MeF-BztA-[39N2spiroundecane]GlnR-Ala-NH2
B4: I-123 (peptide)
peptide: Ac-[αAllylPro]D[tBuAla][B5(4)]D[TfeGA]FAFK[PyrS2″][2F3MeF][Bta][GlnR]A-NH2
modifications: bridge 10-14; not fully specified (bridges); reading uncertain; also: Lys*3 and GlnR*3 marked *3
B5: I-132 (peptide)
peptide: Ac-[αAllylPro]D[tBuAla][B5]D[Phe(3-COOH)][GlnR](29N2spiroundecane)AFL[PyrS2″][2F3MeF″][BztA″][GlnR]A-NH2
modifications: reading uncertain; also: staple links not given here, printed as Ac-PL3-Asp-Npg-B5-Asp-3COOHF-[29N2spiroundecane]GlnR-Ala-Phe-Leu-PyrS2-2F3MeF-BztA-GlnR-Ala-NH2
B6: I-128 (peptide)
peptide: Ac-[αAllylPro]D[tBuAla][B5(4)]D[TfeGA]AAFK[PyrS2″][2F3MeF][Bta][GlnR]L-NH2
modifications: bridge 10-14; not fully specified (bridges); reading uncertain; also: Lys*3 and GlnR*3 marked *3
B7: I-91 (peptide)
peptide: Ac-[PL3]D[tBuAla][B5][hSer][Phe(3-COOH)]QAFK[PyrS2″][3Thi][BztA][GlnR]A-NH2
modifications: staple 1-4 (inferred); bridge 10-14; not fully specified (residue 10, bridges); printed as Ac-PL3-Asp-Npg-B5-Hse-3COOHF-Gln-Ala-Phe-Lys*3-PyrS2-3Thi-BztA-GlnR*3-Ala-NH2; reading uncertain; also: Lys10 and GlnR14 marked *3
B8: I-93 (peptide)
peptide: Ac-[αAllylPro]D[tBuAla][B5(4)]D[Phe(3-COOH)][GlnR]AFL[PyrS2″][2F3MeF(3)][BztA][GlnR](4aminopiperidine)A-NH2
modifications: staple 1-4 (inferred); not fully specified (bridges); printed as Ac-PL3-Asp-Npg-B5-Asp-3COOHF-GlnR-Ala-Phe-Leu-PyrS2-2F3MeF-BztA-[4aminopiperidine]GlnR-Ala-NH2; reading uncertain
B9: I-54 (peptide)
peptide: Ac-[αAllylPro]D[tBuAla][B5(3)]D[Phe(3-COOH)]K(Biphen33COOH)AFL[PyrS2(3)][Phe(2-Cl)][Bta]K-NH2
modifications: not fully specified (residue 6, bridges); printed as Ac-PL3-Asp-Npg-B5-Asp-3COOHF-[Biphen33COOH]Lys-Ala-Phe-Leu-PyrS2-2ClF-BztA-Lys-NH2; reading uncertain
B10: I-81 (peptide)
peptide: Ac-[PL3][hSer][tBuAla][B5]D[Phe(3-COOH)]AAFK[PyrS2″][3Thi][BztA][GlnR]A-NH2
modifications: staple 1-4 (inferred); bridge 10-14; not fully specified (residue 10, bridges); printed as Ac-PL3-Hse-Npg-B5-Asp-3COOHF-Ala-Ala-Phe-Lys*3-PyrS2-3Thi-BztA-GlnR*3-Ala-NH2; reading uncertain
B11: I-86 (peptide)
peptide: Ac-[PL3]D[tBuAla][B5]N[Phe(3-COOH)]SAFK[PyrS2″][3Thi][BztA][GlnR]A-NH2
modifications: staple 1-4 (inferred); bridge 10-14; not fully specified (residue 10, bridges); printed as Ac-PL3-Asp-Npg-B5-Asn-3COOHF-Ser-Ala-Phe-Lys*3-PyrS2-3Thi-BztA-GlnR*3-Ala-NH2; reading uncertain; also: Lys10 and GlnR14 marked *3
B12: I-53 (peptide)
peptide: Ac-[αAllylPro]D[tBuAla][B5(3)]D[Phe(3-COOH)]K(diphenate)AFL[PyrS2(3)][Phe(2-Cl)][Bta]K-NH2
modifications: not fully specified (residue 6, bridges); printed as Ac-PL3-Asp-Npg-B5-Asp-3COOHF-[diphenate]Lys-Ala-Phe-Leu-PyrS2-2ClF-BztA-Lys-NH2
B13: I-89 (peptide)
peptide: Ac-[PL3][hSer][tBuAla][B5]D[Phe(3-COOH)]QAFK[PyrS2″][3Thi][BztA][GlnR]A-NH2
modifications: staple 1-4 (inferred); bridge 10-14; not fully specified (residue 10, bridges); printed as Ac-PL3-Hse-Npg-B5-Asp-3COOHF-Gln-Ala-Phe-Lys*3-PyrS2-3Thi-BztA-GlnR*3-Ala-NH2; reading uncertain; also: Lys10 and GlnR14 marked *3
B14: I-85 (peptide)
peptide: Ac-[PL3][hSer][tBuAla][B5]D[Phe(3-COOH)]SAFK[PyrS2″][3Thi][BztA][GlnR]A-NH2
modifications: staple 1-4 (inferred); bridge 10-14; not fully specified (residue 10, bridges); printed as Ac-PL3-Hse-Npg-B5-Asp-3COOHF-Ser-Ala-Phe-Lys*3-PyrS2-3Thi-BztA-GlnR*3-Ala-NH2; reading uncertain; also: Lys10 and GlnR14 marked *3

Target: beta-catenin (human)
Assay: cell-based or functional assay

Chain of beta-catenin (human) (B6V8E6 146-665 limits assumed): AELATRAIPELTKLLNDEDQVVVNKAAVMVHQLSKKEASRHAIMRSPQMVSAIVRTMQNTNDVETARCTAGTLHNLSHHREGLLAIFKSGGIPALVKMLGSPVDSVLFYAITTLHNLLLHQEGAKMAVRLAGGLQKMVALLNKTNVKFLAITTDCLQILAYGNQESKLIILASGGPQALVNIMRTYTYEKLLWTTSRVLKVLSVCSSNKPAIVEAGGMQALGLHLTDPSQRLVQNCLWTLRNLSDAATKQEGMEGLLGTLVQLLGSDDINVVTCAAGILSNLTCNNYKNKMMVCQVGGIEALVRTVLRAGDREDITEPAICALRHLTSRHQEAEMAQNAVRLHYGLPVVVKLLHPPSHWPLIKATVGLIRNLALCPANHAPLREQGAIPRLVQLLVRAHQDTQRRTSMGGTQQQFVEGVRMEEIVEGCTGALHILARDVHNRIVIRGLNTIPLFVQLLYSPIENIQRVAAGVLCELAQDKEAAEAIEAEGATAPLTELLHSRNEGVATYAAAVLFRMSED

NanoBRET Abs IC50 [nM] | NanoBRET Abs IC50 (bin >3.0 uM) [nM] | Binder
> 10000 | – | B1
> 10000 | – | B2
> 10000 | – | B3
> 10000 | – | B4
> 10000 | – | B5
– | < 10000 | B6

Target: beta-catenin (human)
Assay: fluorescence polarization; bin >200 nM

IC50 [nM] | Binder
< 750 | B7
< 750 | B8

Target: beta-catenin (human)
Assay: fluorescence polarization; bin >50 nM

IC50 [nM] | Binder
< 200 | B1
< 200 | B2
< 200 | B9
< 200 | B10
< 200 | B3
< 200 | B4
< 200 | B11
< 200 | B12
< 200 | B13
< 200 | B5
< 200 | B6
< 200 | B14
